The values that follow come from patent US20230295331A1 (PROMAB BIOTECHNOLOGIES, published 2023).

“And” between values parts separate entries of the source, which are not always exact repeats. Identical values can stand only once.

The target in test [1] is T1, CS1 protein (SLAM family member 7, CD319) on cells (human, UniProt Q9NQ25 23-335).
T1 construct: The cells are CHO-CS1 (bought from BPS Bioscience), Hela-CS1 (transduced with CS1 cDNA lentivirus) and the myeloma lines, which carry CS1 of their own; also called CHO-CS1 cells; Hela-CS1 cells
T1 sequence: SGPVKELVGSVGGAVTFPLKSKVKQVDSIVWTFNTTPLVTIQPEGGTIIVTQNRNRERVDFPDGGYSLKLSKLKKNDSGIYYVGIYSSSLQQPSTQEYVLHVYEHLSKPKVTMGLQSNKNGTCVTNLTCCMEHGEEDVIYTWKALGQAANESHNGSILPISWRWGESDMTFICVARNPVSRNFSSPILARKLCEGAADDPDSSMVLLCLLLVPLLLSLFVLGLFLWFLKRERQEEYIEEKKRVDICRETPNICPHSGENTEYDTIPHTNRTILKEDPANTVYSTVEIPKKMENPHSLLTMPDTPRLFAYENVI
Briefly: binding titration by flow cytometry on CHO-CS1 cells. Background: A flow cytometer gives signals particle by particle.

Test [2] addresses T1, CS1 protein (SLAM family member 7, …). Kind of test: flow cytometry binding titration on CHO-CS1 cells.

B1: mouse monoclonal anti-human CS1 antibody, clone 7A8D5 (antibody, V domains shown)
VH: VQLQQSGPEVVRPGVSVKISCKGSGYTFTDYAIHWVKQSHAKSLEWIGVINTYNGNTNYNQKFKGKATMTVDKSSSTAYMELARLTSEDSAIYYCTRTGYYYGPSHYFDYWGQGTTLTVSS
VL: DIVLTQSPASLTVSLGQRATMSCRASKSVSTSGYSYVHWYQQKPGQPPKLLIYLASNLESGVPARFSASGSGTDFTLNIHPVEEEDAATYYCQHSRELPWTFGGGTKLEIKR
notes: Mouse monoclonal antibody from a hybridoma, purified on a Protein G column; also called anti-CS1 antibody clone 7A8D5; CS1 clone 7A8D5
As for B1, the Kd in test [1] is 5.3 nM and 0.8 µg/mL. Further, the “EC50 (read off the curve)” value in test [2] is about 0.7 µg/mL.

One may read the Kd as the concentration at which binding is half-saturated. Higher therefore signals lower affinity. By EC50 (read off the curve) is commonly meant the concentration that produces a half-maximal response. Low values mean a more potent agent, high ones a less potent agent.
